The source of these data is PMC5531539 (PLoS ONE, 2017).

Where a chain is given by its changes, count along the chain named.

The chains are these.
B1: bH1 Fab (parent) (Fab, V domains shown)
VH: not shown
VL: DIQMTQSPSSLSASVGDRVTITCRASQDIPRSISGYVAWYQQKPGKAPKLLIYWGSYLYSGVPSRFSGSGSGTDFTLTISSLQPEDFATYYCQQHYTTPPTFGQGTKVEIK
notes: Fab heavy chain of bH1; numbers count on: Bostrom et al. [8]; Fab light chain of bH1; also called WT; source: CHO-3E7, co-transfected, His-tag purified
B2: bH1 Fab HD98Y HD31K LI29R (Fab, V domains shown)
VH: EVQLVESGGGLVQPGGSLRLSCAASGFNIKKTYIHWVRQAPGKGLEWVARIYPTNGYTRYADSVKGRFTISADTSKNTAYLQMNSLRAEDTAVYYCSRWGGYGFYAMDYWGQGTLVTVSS
VL: B1 VL with I29R
notes: as the heavy chain of m4 with the stated changes; numbers count on: Bostrom et al. [8]; as the light chain of m4 with the stated change; also called best triple mutant (bH1-HER2); source: CHO-3E7, co-transfected, His-tag purified
B3: bH1 Fab HD98Y HD31K LI29K (Fab, V domains shown)
VH: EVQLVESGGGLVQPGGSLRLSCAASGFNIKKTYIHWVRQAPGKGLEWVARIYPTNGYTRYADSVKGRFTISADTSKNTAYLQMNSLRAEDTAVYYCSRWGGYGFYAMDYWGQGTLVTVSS
VL: B1 VL with I29K
notes: as the heavy chain of m4 with the stated changes; numbers count on: Bostrom et al. [8]; as the light chain of m4 with the stated change; source: CHO-3E7, co-transfected, His-tag purified
B4: bH1 Fab HD98K HD31K LI29K (Fab, V domains shown)
VH: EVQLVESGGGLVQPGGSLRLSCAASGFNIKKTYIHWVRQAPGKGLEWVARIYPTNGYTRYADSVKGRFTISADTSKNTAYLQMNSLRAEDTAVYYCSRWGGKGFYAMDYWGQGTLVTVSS
VL: B1 VL with I29K
notes: as for B3
B5: bH1 Fab HD98K HD31K LI29R (Fab, V domains shown)
VH: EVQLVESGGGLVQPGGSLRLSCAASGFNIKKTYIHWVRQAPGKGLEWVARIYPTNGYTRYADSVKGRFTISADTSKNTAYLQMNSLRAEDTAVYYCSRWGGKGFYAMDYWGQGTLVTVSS
VL: B1 VL with I29R
notes: as for B3
B6: bH1 Fab HD98F HD31K LI29K (Fab, V domains shown)
VH: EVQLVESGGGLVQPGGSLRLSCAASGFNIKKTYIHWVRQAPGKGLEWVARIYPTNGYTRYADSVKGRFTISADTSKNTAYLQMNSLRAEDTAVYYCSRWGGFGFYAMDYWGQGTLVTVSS
VL: B1 VL with I29K
notes: as for B3
B7: bH1 Fab HD98F HD31K LI29R (Fab, V domains shown)
VH: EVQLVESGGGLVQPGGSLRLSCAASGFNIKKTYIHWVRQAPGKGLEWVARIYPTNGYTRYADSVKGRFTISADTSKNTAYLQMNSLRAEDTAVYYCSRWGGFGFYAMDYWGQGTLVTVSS
VL: B1 VL with I29R
notes: as for B3
B8: bH1 Fab HD98W HY33W HG99M (Fab, V domains shown)
VH: EVQLVESGGGLVQPGGSLRLSCAASGFNIKDTWIHWVRQAPGKGLEWVARIYPTNGYTRYADSVKGRFTISADTSKNTAYLQMNSLRAEDTAVYYCSRWGGWMFYAMDYWGQGTLVTVSS
VL: B1 VL
notes: as the heavy chain of m4 with the stated changes; numbers count on: Bostrom et al. [8]; as the light chain of m4; source: CHO-3E7, co-transfected, His-tag purified
B9: bH1 Fab HD98W HY33W HG99D (Fab, V domains shown)
VH: B8 VH with M103D
VL: B1 VL
notes: as the heavy chain of m4 with the stated changes; numbers count on: Bostrom et al. [8]; as the light chain of m4; also called best triple mutant (bH1-VEGF); source: CHO-3E7, co-transfected, His-tag purified
B10: bH1 Fab LS30dL (Fab, V domains shown)
VH: not shown
VL: B1 VL with S34L
notes: as the heavy chain of Sm3; bH1 Fab light chain, parent as in Sm3; numbers count on: Bostrom et al; source: CHO-3E7, co-transfected, purified (His tag)
B11: bH1 Fab LS30dM (Fab, V domains shown)
VH: not shown
VL: B1 VL with S34M
notes: as for B10

In one assay the target is T1, Recombinant soluble human HER2 extracellular domain (Homo sapiens, UniProt P04626).
T1 construct: human HER2 (ErbB2), soluble extracellular domain; also called HER2 ectodomain; Receptor-tyrosine kinase ErbB2 soluble ectodomain; source: bought: eBioscience
Description: SPR; BioRad ProteOn XPR36; HER2 or VEGF amine-coupled to a GLC chip (about 150 RU); Fab as analyte, 3-fold dilutions from 30, 60 or 120 nM; 25C; PBS, 0.05% Tween 20, 3.4 mM EDTA; 1:1 binding model, KD from koff/kon. The settings on record: both partners purified.
As usually defined, the Kd is the free concentration of one partner at which half of the binding sites on the other are occupied at equilibrium, for simple one-to-one binding. Usually koff stands for the rate constant with which the complex falls apart. As a reminder, the kon is the second-order rate constant of association. For B1, the equilibrium dissociation constant (Kd) is 3.6 ± 0.6 nM, the koff worked out at 0.0013 s⁻¹ and the kon worked out at 370000 M⁻¹ s⁻¹.
As to B2, the Kd was found to be 0.07 ± 0.01 nM, the koff stood at 0.00025 s⁻¹ and the kon amounted to 3.8e+06 M⁻¹ s⁻¹.
For B3, in that order: 0.14 ± 0.09 nM, 0.00028 s⁻¹ and 2.2e+06 M⁻¹ s⁻¹.
In the case of B4, the dissociation constant (Kd) is 0.15 ± 0.05 nM, the koff was 0.00039 s⁻¹ and the kon was determined as 2.3e+06 M⁻¹ s⁻¹.
For B5, in that order: 0.11 ± 0.02 nM, 0.00045 s⁻¹ and 4.4e+06 M⁻¹ s⁻¹.
For B6, in that order: 0.14 ± 0.05 nM, 0.00029 s⁻¹ and 2.2e+06 M⁻¹ s⁻¹.
As to B7, the dissociation constant Kd was found to be 0.11 ± 0.02 nM, the koff turned out to be 0.00029 s⁻¹ and the kon was determined as 2.7e+06 M⁻¹ s⁻¹.

The target in a further assay is T2, Full-length isoform 165 of human VEGF-A (Homo sapiens, UniProt P15692-4, strain).
T2 construct: human vascular endothelial growth factor A, 165 amino acid isoform (VEGF165); also called VEGF165
The assay is described as above. The note with it: both partners purified.
T2 sequence (P15692 whole entry, looked up, change not shown, canonical isoform): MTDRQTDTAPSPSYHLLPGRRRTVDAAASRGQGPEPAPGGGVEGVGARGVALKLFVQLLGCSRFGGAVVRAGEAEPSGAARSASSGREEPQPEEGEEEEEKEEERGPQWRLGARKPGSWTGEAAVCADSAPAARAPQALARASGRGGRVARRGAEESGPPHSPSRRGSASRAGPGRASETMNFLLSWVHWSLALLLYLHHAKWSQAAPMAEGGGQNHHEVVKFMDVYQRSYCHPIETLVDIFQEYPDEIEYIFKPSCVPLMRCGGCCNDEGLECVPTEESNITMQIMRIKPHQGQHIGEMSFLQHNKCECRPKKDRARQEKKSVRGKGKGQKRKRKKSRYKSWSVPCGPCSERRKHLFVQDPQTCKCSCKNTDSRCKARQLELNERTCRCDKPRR
The molecule B1 had a Kd of 44 ± 17 nM, a koff of 0.009 s⁻¹ and an association rate constant (kon) of 220000 M⁻¹ s⁻¹.
Regarding B8, the affinity, expressed as Kd, was 1.2 ± 0.2 nM; the koff is 0.00034 s⁻¹; the kon worked out at 290000 M⁻¹ s⁻¹.
For B9, in that order: 0.5 ± 0.1 nM, 7e-05 s⁻¹ and 160000 M⁻¹ s⁻¹.

The next assay addresses T3, Full-length isoform 165 of human VEGF-A (Homo sapiens, UniProt P15692-4, strain).
T3 construct: vascular endothelial growth factor A, human, 165 amino acid isoform; also called VEGF165; source: produced recombinantly and purified
Description: SPR; BioRad ProteOn XPR36, GLC chip; HER2 and VEGF amine-coupled (about 150 RU); Fab variants injected as analyte in 3-fold dilutions (top 30, 60 or 120 nM); 25C, PBS with 0.05% Tween 20 and 3.4 mM EDTA; 1:1 model; KWT/K uses the parent Fab's K of the same batch. The settings on record: both partners purified. A general note: In SPR one partner is held on a chip, and binding of the other changes the refractive index at the surface.
T3 sequence (P15692 whole entry, looked up, change not shown, canonical isoform): as above
As for B10, the binding result is given as “no binding”.
With B11, the binding result is reported as “no binding”.
